# B1: Variant 10014 (antibody, human IgG1, kappa)
# heavy: EVQLVESGGGLVQPGGSLRLSCAASGFTFADYTMDWVRQAPGKGLEWVADVNPNSGGSIYNQRFKGRFTLSVDRSKNTLYLQMNSLRAEDTAVYYCARNLGPSFYFDYWGQGTLVTVSSASTKGPSVFPLAPSSKSTSGGTAALGCLVKDYFPEPVTVSWNSGALTSGVHTFPAVLQSSGLYSLSSVVTVPSSSLGTQTYICNVNHKPSNTKVDKKVEPKSCDKTHTCPPCPAPELLGGPSVFLFPPKPKDTLMISRTPEVTCVVVDVSHEDPEVKFNWYVDGVEVHNAKTKPREEQYNSTYRVVSVLTVLHQDWLNGKEYKCKVSNKALPAPIEKTISKAKGQPREPQVYVYPPSRDELTKNQVSLTCLVKGFYPSDIAVEWESNGQPENNYKTTPPVLDSDGSFALVSKLTVDKSRWQQGNVFSCSVMHEALHNHYTQKSLSLSPG
# light: not shown
# Fc: not shown
# notes: also called v10014
# Experiments:
# recombinant human HER2 [1] = molecular target: T1, recombinant human HER2 (human, UniProt P04626 23-652); assay: SPR by the protocol of Example 12, sample after SEC, against v10013
# T1 construct: extracellular domain
# Method: (§1) Between 2000 and 4000 RU of anti-human Fc injected at concentration between 5 and 10 μg/ml was immobilized on a CM5 chip using standard amine coupling. […] HER2 dilutions were analyzed in duplicate. Sensograms were fit globally to a 1:1 Langmuir binding model. All experiments were conducted at 25° C.
# (§2) The SPR was measured before and after SEC purification.
# recombinant human HER2 [2] = molecular target: T1, recombinant human HER2; assay: SPR by the protocol of Example 12, sample before SEC, against v10013
# Method: as §1, §2
binder,measurement,setting,value
B1,Fold wrt WT (KD(WT)/KD(mut)),recombinant human HER2 [1],7 fold
same,Fold wrt WT (KD(WT)/KD(mut)),recombinant human HER2 [2],8.1 fold
